The source of these data is US20210163582A1 (APRINOIA THERAPEUTICS, published 2021).

Test [1] has as its target T1, Tau species in AD (Alzheimer's disease) brain lysate (human, UniProt P10636-8 2-441, limits assumed).
T1 construct: Endogenous Tau of a tissue lysate, not a defined construct; also called AD Tau protein; AD brain homogenate
Briefly: dot-blot on spotted AD total brain lysate, antibody in 2-fold dilutions from 6×10^-8 M. As for the experimental part:
To facilitate the therapeutic potentials of mAb005 and mAb037, humanization of mAb005 and mAb037 was performed by grafting the complementary determining regions (CDRs) of Variable Heavy chain (VH) and Variable Light chain (VL) into a human IgG4 S228P backbone (no Fab-arm exchange mutant, Silva et al., 2015 JBC). Four point-mutations were introduced in the nearby residues surrounding the CDRs to conserve the functionality of the resulting variants. Dot-blot analysis was performed to determine the EC₅₀ of each variant, compared with the original mouse/chimeric clones as well as to visualize the specificity to AD Tau protein compared with ND Tau protein. […] Dot-blot experiments were performed by spotting of ND and AD total brain lysates in triplicate, and antibody solutions were diluted serially by a dilution factor of 2 from a maximum concentration of 6×10⁻⁸ M. Summary graphs denote Mean±SD of 3 independent experiments for mAb005 and Mean±SD of triplicated wells.

The target in test [2] is Tau in 6-month-old rTg4510 brain lysate (UniProt P10636-6 2-383, limits assumed). Put plainly: cell-based or functional assay.
Tau in 6-month-old rTg4510 brain lysate, sequence (P10636 other isoform, or with tags, fused parts or gaps limits assumed): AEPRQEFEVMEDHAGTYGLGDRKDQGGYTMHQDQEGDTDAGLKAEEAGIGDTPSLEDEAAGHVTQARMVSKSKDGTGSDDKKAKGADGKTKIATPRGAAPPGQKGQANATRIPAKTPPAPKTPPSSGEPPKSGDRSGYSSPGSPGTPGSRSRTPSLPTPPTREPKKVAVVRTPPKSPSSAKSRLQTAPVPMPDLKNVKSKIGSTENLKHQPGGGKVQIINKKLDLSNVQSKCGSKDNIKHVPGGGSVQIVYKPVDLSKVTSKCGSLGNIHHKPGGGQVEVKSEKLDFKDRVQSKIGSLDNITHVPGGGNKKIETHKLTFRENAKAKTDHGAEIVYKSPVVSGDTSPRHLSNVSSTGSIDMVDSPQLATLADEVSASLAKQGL

T1 sequence (P10636 other isoform, or with tags, fused parts or gaps limits assumed): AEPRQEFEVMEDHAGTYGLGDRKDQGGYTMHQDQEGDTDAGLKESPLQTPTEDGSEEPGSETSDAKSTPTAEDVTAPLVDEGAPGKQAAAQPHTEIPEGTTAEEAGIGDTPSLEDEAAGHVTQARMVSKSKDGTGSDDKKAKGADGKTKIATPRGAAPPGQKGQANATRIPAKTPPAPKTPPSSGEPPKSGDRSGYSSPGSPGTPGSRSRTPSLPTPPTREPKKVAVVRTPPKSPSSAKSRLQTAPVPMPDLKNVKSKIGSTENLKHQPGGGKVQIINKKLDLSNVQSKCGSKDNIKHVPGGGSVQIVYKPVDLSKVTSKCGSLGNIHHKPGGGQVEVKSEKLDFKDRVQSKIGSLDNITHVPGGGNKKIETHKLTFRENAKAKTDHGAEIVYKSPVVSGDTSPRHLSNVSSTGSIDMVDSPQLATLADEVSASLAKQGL

B1: mAb037 (antibody, V domains shown)
VH: EVQLQQSGPELVKPGASVKIPCKASGYTFTDYNMDWVKQSHGKSLEWIGDINPNTGGTIYNQKFKGKATLTVDKSSSTAYMELRSLTSEDTAVYYCAGEGPYYYGTTHPFAYWGQGTLVTVSA
VL: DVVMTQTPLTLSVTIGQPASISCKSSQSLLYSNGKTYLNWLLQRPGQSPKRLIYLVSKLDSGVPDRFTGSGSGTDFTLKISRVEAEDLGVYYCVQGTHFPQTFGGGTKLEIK
notes: Mouse monoclonal from hybridoma; also called mouse mAb037; original mouse clone (of mAb037)
As a reminder, the EC50 is the concentration at which the effect is half-maximal. A low value points to an effect from little substance. B1 gave a half-maximal effective concentration (EC50) in test [1] of 0.54 nM. Besides, in test [2], the “EC50 of inhibition of Tau seeding (Tau spots per cell in Tau-LM reporter cells)” value amounted to 22.9 nM.

B2: Humanized mAb037 (antibody, V domains shown)
VH: QVQLVQSGAEVKKPGASVKVSCKASGYTFTDYNMDWVRQAHGQGLEWIGDINPNTGGTIYNQKFKGRATLTVDTSISTAYMELSRLRSDDTAVYYCAGEGPYYYGTTHPFAYWGQGTLVTVSS
VL: DVVMTQSPLSLPVTLGQPASISCKSSQSLLYSNGKTYLNWLLQRPGQSPRRLIYLVSKLDSGVPDRFSGSGSGTDFTLKISRVEAEDVGVYYCVQGTHFPQTFGGGTKLEIK
notes: also called humanized variant of mAb037
On to B2, for which the 50% effective concentration (EC50) in test [1] came out at 0.95 nM.

B3: mAb005 (antibody, V domains shown)
VH: EVQLVESGGGLVKPGGSLKLSCAASGFTFSDYGMHWVRQAPEKGLEWVAYSNSDSTTIYYADTVKGRFTISRDNAKSTLFLQMTSLRSEDTAMYYCGRSYYSNYVDYWGQGTTLTVSS
VL: DIVMTQIPLSLPVSLGDQASISCRSSQSLVHSNGNTYLHWYLQKPGQSPKLLIYKVSNRFSGVPDRFSGSGSGTDFTLKISRVEAEDLGVYFCFQSTHVPPTFGGGTKLEIK
notes: Mouse monoclonal from hybridoma; also called mouse mAb005; original mouse clone (of mAb005)
As to B3, it took 0.4 nM to reach a half-maximal effect in test [1] (EC50). In addition, in test [2], the “EC50 of inhibition of Tau seeding (Tau spots per cell in Tau-LM reporter cells)” value came to 72.2 nM.

B4: Humanized mAb005 (antibody, V domains shown)
VH: EVQLVESGGGLVQPGGSLRLSCAASGFTFSDYGMHWVRQAPGKGLEWVAYSNSDSTTIYYADTVKGRFTISRDNAKNSLYLQMNSLRAEDTAVYYCGRSYYSNYVDYWGQGTLVTVSS
VL: DVVMTQSPLSLPVTLGQPASISCRSSQSLVHSNGNTYLHWYLQRPGQSPRLLIYKVSNRFSGVPDRFSGSGSGTDFTLKISRVEAEDVGVYFCFQSTHVPPTFGQGTKLEIK
notes: also called humanized variant of mAb005
As for B4, in test [1], a half-maximal response (EC50) required 0.43 nM.
